In US20260258376:

Experiments:
Test in all cases: cell_activity
[1] = test system: ZF-off targeting TAR1650 (table row SEQ 1549) (synthetic); conditions: HLA-DR+ 13.65%; binding inferred from silencing
[2] = test system: ZF-off targeting TAR1607 (table row SEQ 1538) (synthetic); conditions: HLA-DR+ 6.46%; binding inferred from silencing
[3] = test system: ZF-off targeting TAR1608 (table row SEQ 1608) (synthetic); conditions: HLA-DR+ 12.05%; binding inferred from silencing
[4] = test system: ZF-off targeting TAR1623 (table row SEQ 1605) (synthetic); conditions: HLA-DR+ 10.56%; binding inferred from silencing
[5] = test system: ZF-off targeting TAR1649 (second row, 10.70%) (synthetic); conditions: HLA-DR+ 10.70%; binding inferred from silencing
[6] = test system: ZF-off targeting TAR1655 (table row SEQ 1563) (synthetic); conditions: HLA-DR+ 15.20%; binding inferred from silencing
[7] = test system: ZF-off targeting TAR1646 (table row SEQ 1547) (synthetic); conditions: HLA-DR+ 3.88%; binding inferred from silencing
[8] = test system: ZF-off targeting TAR1615 (table row SEQ 1601) (synthetic); conditions: HLA-DR+ 4.50%; binding inferred from silencing
[9] = test system: ZF-off targeting TAR186 (table row SEQ 1553) (synthetic); conditions: HLA-DR+ 7.53%; binding inferred from silencing
[10] = test system: ZF-off targeting TAR1648 (third row, 4.51%) (synthetic); conditions: HLA-DR+ 4.51%; binding inferred from silencing
[11] = test system: ZF-off targeting TAR1654 (table row SEQ 1572) (synthetic); conditions: HLA-DR+ in primary human T cells, 2.64%; binding inferred from silencing
[12] = test system: ZF-off targeting TAR1616 (table row SEQ 1557) (synthetic); conditions: HLA-DR+ 5.76%; binding inferred from silencing
[13] = test system: ZF-off targeting TAR1604 (table row SEQ 1576) (synthetic); conditions: HLA-DR+ 12.84%; binding inferred from silencing
[14] = test system: ZF-off targeting TAR1612 (table row SEQ 1599) (synthetic); conditions: HLA-DR+ 12.50%; binding inferred from silencing

“GAATTTGGTGAAGACAGAA (double strand) [TAR1650]” gave an activity (fraction of off-target control) [1] of 0.39.
Work on “AGGGCACGAGGAGGGGCTG (double strand) [TAR1607]” yielded an activity (fraction of off-target control) [2] of 0.18.
“GGAGCTGCTGCCTGGCTGG (double strand) [TAR1608]” gave an activity (fraction of off-target control) [3] of 0.34.
With “GGAGGGGGAGAAGTCAGAG (double strand) [TAR1623]” the activity (fraction of off-target control) [4] was 0.3.
“ACAGAAAGTCTGTTGGGGG (double strand) [TAR1649]” was tested, and the activity (fraction of off-target control) [5] was 0.31.
For “TGGGTATGGAGTGGAGTCT (double strand) [TAR1655]”, the activity (fraction of off-target control) [6] was 0.43.
For “GTGGTATCAAGGAGGAAGT (double strand) [TAR1646]”, the activity (fraction of off-target control) [7] was 0.11.
With “GACGGGGGAACAGATGGTG (double strand) [TAR1615]” the activity (fraction of off-target control) [8] was 0.13.
In the case of “GAGGCTGTGTGCTTCTGAG (double strand) [TAR186]”, the activity (fraction of off-target control) [9] is reported as 0.22.
With “GAGAGCCTCTGCTGGGGAC (double strand) [TAR1648]” the activity (fraction of off-target control) [10] was 0.13.
Work on “GACAGGTAGGACCCAGCAG (double strand) [TAR1654]” yielded an activity (fraction of off-target control) [11] of 0.08.
In the case of “GAACAGATGGTGGGAAGAG (double strand) [TAR1616]”, the activity (fraction of off-target control) [12] is reported as 0.16.
Sequence “GAGGCATCTGGGCGGAGGG (double strand) [TAR1604]” has an activity (fraction of off-target control) [13] of 0.37.
With “GCAGCTGGGGAGAGCTGGC (double strand) [TAR1612]” the activity (fraction of off-target control) [14] was 0.36.
